The record followed here is publication PMC3554232.

Read-outs that look alike come from different tables or passages of the source.

Common to all, as to assay: smFRET
In data set [1] the target is T1, yNhp6A (Saccharomyces cerevisiae, UniProt P11632 1-93).
Data set [2] addresses T1, yNhp6A. The source holds these as a separate data set.
The target of data set [3] is T1, yNhp6A. The source holds these as a separate data set.
Data set [4] deals with T1, yNhp6A. This is another data set of the same source.

T1 sequence (P11632 whole entry): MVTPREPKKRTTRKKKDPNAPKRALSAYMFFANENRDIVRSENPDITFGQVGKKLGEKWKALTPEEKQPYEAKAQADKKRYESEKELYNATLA

B1: linear_18b (dsDNA)
DNA 1: TGGTTATATCATCTAGGC
DNA 2: GCCTAGATGATATAACCATTTTTTTTTTTTTTT
With B1, the binding signal with yNhp6A [1] was ~2 fold affinity vs linear_18a.

B2: linear_18a (dsDNA)
DNA 1: TGGCGACGGCAGCGAGGC
DNA 2: GCCTCGCTGCCGTCGCCATTTTTTTTTTTTTTT
Turning to B2, the Kd (in general, the free concentration of one partner at which half of the binding sites on the other are occupied at equilibrium, for simple one-to-one binding) with yNhp6A [2] is roughly 1 nM.

B3: linear_15a (dsDNA)
DNA 1: CGACGGCAGCGAGGC
DNA 2: GCCTCGCTGCCGTCGCCATTTTTTTTTTTTTTT
As for B3, the binding result in the data set with yNhp6A [3] is “binds”.

B4: bulge_15a (dsDNA)
DNA 1: CGACGGCAAAGCGAGGC
DNA 2: GCCTCGCTGCCGTCGCCATTTTTTTTTTTTTTT
Regarding B4, the binding result in the data set with yNhp6A [3] is “binds”.

B5: bulge_18a (dsDNA)
DNA 1: TGGCGACGGAACAGCGAGGC
DNA 2: GCCTCGCTGCCGTCGCCATTTTTTTTTTTTTTT
On to B5, for which the binding signal with yNhp6A [4] was roughly 2 fold kon vs linear_18a.
